Experimental data reported in article PMC3613824 (Cell Death & Disease, 2013).

Molecular target: MBP-DLC2 (dynein light chain-2 fused to maltose-binding protein) (UniProt Q96FJ2 1-89)
Experiment: pull-down

- binding result: binds
B1: GST-MVaf1 (myosin-Va medial tail fragment 1, MYO5A 1276-1328 [+B], fused to glutathione-S-transferase) (domain or fragment)
chain: QKEAIQPKDDKNTMTDSTILLEDVQKMKDKGEIAQAYIGLKETNRSSALDYHE
